The assay addresses Aldob (aldolase B) (UniProt P05062). Put plainly: anti-Flag (Aldob) co-IP, Myc-Akt1 blot. As to conditions: reference: Myc-Akt1 wild type.

This is an account of results in article PMC7744066.

As for “Akt1 (from UniProt P31749) Myc-Akt1 S473A”, the “binding against the reference” value (sites S473) is listed as “weaker”.
For “Akt1 (from UniProt P31749) Myc-Akt1 T308A”, the “binding against the reference” value (sites T308) is on record as “weaker”.
